The source of these data is the nanobody polyreactivity screen of Harvey et al. (2022).

A short description of this data set: yeast display, Sf9 membrane polyspecificity reagent, FACS + sequencing; frameworks hold sequencing errors. The essentials: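 Genes from sorted yeast were amplified by colony PCR, read by MiSeq 2 × 250 sequencing and filtered on CDR length. These cells carried a synthetic nanobody library in Saccharomyces cerevisiae BJ5465 and were sorted by FACS into low and high (top ~1%) gates on anti-HA and streptavidin fluorescence. Polyreactivity is labelled according to the gate of origin.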
On to “QVQLVESGGGLVQAGGSLRLSCAASGYTFRAYAMGWYRPAPGKERELVAAISRRGGSTYYADSVKGRFTISRDNAKNTVYLQMNSLKPEDTAVYYCAADFRSEHAEDYWGQGTQVTVSS”, for which the “polyreactivity (PSR sort gate)” value was “high polyreactivity”.
As to “QVQLVESGGGLVQAGGSLRLSCAASGYTFRLYAMGWYRQAPVKERELVAAINTSGGRTYYADSVKGRFTISRDNAKNTVYLQMNSLKPEDTAVYYCATDWYWKRADIRPGDYWGQGTQVTVSS”, the “polyreactivity (PSR sort gate)” value is “low polyreactivity”.
Under “QVQLVESGGGLVQAGGSLRLSCAASGYTFRNYAMGWYRQAPGKERELVAAISTRGVSTYYADSVKGRFTISRDNAKNTVYLQMNSLKPEDTADYYCAAAGGRYSRAAYDYWGQGTQVTVSS” stands “low polyreactivity”; under “QVQLVESGGGLVQAGGSLRLSCAASGYTFRQYAMGWYRQAPGKERELVAAIRYSGASTYYADSVKGRFTISRDNAKNTVYLQINSLKPEDTAVYYWNAALRLWGEYIYDYWGQGTQVTVSS”, “low polyreactivity”.
With “QVQLVESGGGLVQAGGSLRLSCAASGYTFRSNTMGWYRQAPGKERELVAAISGRGSSTYYADSVKGRFTISRDNAKNTVYLQMNSLKPEDTAVYYWNAPYNRATYNYWGQGTQVNVSS” the entry was “high polyreactivity”.
On to “QVQLVESGGGLVQAGGSLRLSCAASGYTFRSNTMGWYRQAPGKERELVASINQSGGRTYYADSVKGRFTISRDNAKNTVYFQMNSLKPEDTAVYYCATRGYNYYAHNYWGQGTQVTVSS”, for which the “polyreactivity (PSR sort gate)” value is recorded as “high polyreactivity”.
Under “QVQLVESGGGLVQAGGSLRLSCAASGYTFRSYMGWYRQAPGKEREFVADISTSVTNTYYADSVKGRFTISRDNAKNTVYLQMNSLKPEDTAVYYCAAGVQSVYNGEPGIILEFDYWGQGTQVTVSS” stands “low polyreactivity”; under “QVQLVESGGGLVQAGGSLRLSCAASGYTFRTNVMGWYRQAPGKERELVATINWRGGSTYYADSVKGRFTISRDNAKNTVYLQMNSLKPEDTAVYYCAKTYRYYRTMDYWGQGTQVTVSS”, “low polyreactivity”.
Under “QVQLVESGGGLVQAGGSLRLSCAASGYTFRWYVMGWYRPAPGKERELVAAISQSGGDTYYADSVKGRFTISRDNAKNTVYLQMNSLKPEDTAVYYCAVGRVGRFYYWGQGTQVTVSS” stands “high polyreactivity”; under “QVQLVESGGGLVQAGGSLRLSCAASGYTFRYNALGWYRQAPGKERELVAAISYSRGSTYYADSVKGRFTISRDYAKYTVYLLMNSLKPEDTAVYYCAAQYLFSGHDYWGQGTQVTVSS”, “low polyreactivity”.
Under “QVQLVESGGGLVQAGGSLRLSCAASGYTFRYNTMGWYRQAPGKERELVADISSGVGNTYYADSVKGRFTISRDNAKNTVYLQMNSLKPEDTAVYYCNADYKSSYYWYLWYNYWGHGTQVTVSS” stands “low polyreactivity”.
As to “QVQLVESGGGLVQAGGSLRLSCAASGYTFRYYAMGSYRQAPGKERELVAAITWSGGSTYYADSVKGRFTISRDNAKNTVYLQMNSLKPEDTAVYFCATDSARVGNFPYPQFDYWGQGTQVTVSS”, the “polyreactivity (PSR sort gate)” value was “low polyreactivity”.
In the case of “QVQLVESGGGLVQAGGSLRLSCAASGYTFRYYAMGWYRQAPGKERELVAAINWSGGSTYYADSVKGRFTISRDNAKNTVYLQNNSLKPEDTAVYYCAADPDGDLDIDYDYWGLGTQVTVSS”, the “polyreactivity (PSR sort gate)” value was “low polyreactivity”.
Under “QVQLVESGGGLVQAGGSLRLSCAASGYTFRYYAMGWYRQAPGKERELVAVISSGGSTKYADSVKGRFTISRDNAKNTVYLQMNSLKPEDTAVYYCAARYRSLYNYWGQGTQVTVSS” stands “high polyreactivity”.
As to “QVQLVESGGGLVQAGGSLRLSCAASGYTFSAYAMGCYRQAPGKERELVASITRRRTNYAESVKGRFTISRDNAKNTVYLQMNSLKPEDTAVYYCAATNYVRQYATYDYWGQGTQVTVSS”, the “polyreactivity (PSR sort gate)” value is “high polyreactivity”.
For the sequence “QVQLVESGGGLVQAGGSLRLSCAASGYTFSFYAMGWYRQAPGKERELVATISWRGGSTYYADSVKGRFTISRDNAKNTVYLQMNSLKPEDTAVYYCNIVDKTGSKMDYWGQGTQVTVSS”, the “polyreactivity (PSR sort gate)” value is recorded as “high polyreactivity”.
With “QVQLVESGGGLVQAGGSLRLSCAASGYTFSRYAMGWYRQAPGKERELVAAISSRGGSTYYADSVKGRFTISRDNAKNTVYLQMNSLKPADTAVYYCAADYGVGYGIVGSYYWGQGTQVTVSS” the entry was “high polyreactivity”; with “QVQLVESGGGLVQAGGSLRLSCAASGYTFSSNVMGWYRQAPGKERELVAAISANGARTYYADSVKGRFTISRDNAKNTVYLQMNSLKPEDTAVYYCAADYRWAGRYYYWGQGTQVTVSS”, “high polyreactivity”; with “QVQLVESGGGLVQAGGSLRLSCAASGYTFSSYAMGWYRQAPGKERELVAAITIGGGTNYADSVKGRFTISRDNAKNTVYLQMNSLKPEDTAVYYCNRDVALLEHPVPKKEFGYWGQGTQVTVSS”, “low polyreactivity”.
Take “QVQLVESGGGLVQAGGSLRLSCAASGYTFSYYAMGWYRQAPGKERELVAAINYSGGRTYYADSVKGRFTISRDNAKHTVYLQMNSLKPEDSAVDYCAARGGFGMDYWGQGTQVTVSS”: the “polyreactivity (PSR sort gate)” value is given as “high polyreactivity”.
With “QVQLVESGGGLVQAGGSLRLSCAASGYTFTAYAMGWYRQAPGKERELVAAISKGGGSTYYADSVKGRFTISRDNAKNTVYLQMNSLKPEDTAVYYCAADTYQGVKYYYWGQGTQVTVSS” the entry was “high polyreactivity”; with “QVQLVESGGGLVQAGGSLRLSCAASGYTFTIYALGWYRQAPGKEMELVASISIDGSTYYADSVKGRFTISRDNAKNTVYLQMNSLKPEDTAVYYCAADYYYYTPGFDYWGQGTQVTVSS”, “low polyreactivity”; with “QVQLVESGGGLVQAGGSLRLSCAASGYTFTRYAMGWYRQAPGKEREFVAAITSGGGSTYYADSVKGRFTISRDNAKNTVYLQMNSLKPEDTAVYYCAATRLVSYHYPDLDSQQGGYWGQGTQVTVSS”, “low polyreactivity”.
Under “QVQLVESGGGLVQAGGSLRLSCAASGYTFVGYAMGWYRQAPGKERELVASISTGDSTYYADSVKGRFTISRDNAKNTVYLQMNSLKPEDTAVYYCAADSWYFRGMDYWGQGTQVTVSS” stands “low polyreactivity”; under “QVQLVESGGGLVQAGGSLRLSCAASGYTFVIYAMGSYRQAPGKERELVAAITTIGGRTYYADSVKGRFTISRDNAKNNVYLQMNSLKPEDTAVYYCAADIRSNRLYDGGYWGEGTQVTVSS”, “low polyreactivity”; under “QVQLVESGGGLVQAGGSLRLSCAASGYTFVLNAMGWYRQAPGKEREFFAAITWSGGSTYYADSVKGRFTISRDNAKNTVYLQMNSLKPEDTAVYYCARSSRGKLDYWGQGTQVTVSS”, “low polyreactivity”.
As for “QVQLVESGGGLVQAGGSLRLSCAASGYTFVTYAMGWYRQAPGKERELVAAISYTGGSTYYADSVKGRFTISRDNAKNTVYLQMNSLKPEDTAVYYCATLRNHYRYDYWGQGTQVTVSS”, the “polyreactivity (PSR sort gate)” value is “low polyreactivity”.
Turning to “QVQLVESGGGLVQAGGSLRLSCAASGYTFVYNAMGWYRQAPGKERELVAAITWGGAGTYYADSVKGRFTISRDNAKNTVYLQMNSLKPEDTAVYYCAAPSPRSSAYTYRGDYWGQGTQVTVSS”, the “polyreactivity (PSR sort gate)” value is recorded as “low polyreactivity”.
As for “QVQLVESGGGLVQAGGSLRLSCAASGYTFYAMGWYRQAPGKERELVAAITYRGARTYYADSVKGRFTISRDNAKNTVYLQMNSLKPEDTAVYYCNADYWGQGTEVTVSS”, the “polyreactivity (PSR sort gate)” value is “low polyreactivity”.
With “QVQLVESGGGLVQAGGSLRLSCAASGYTFYENAMGWYRQAPGKERELVAAITSDGSTYYADSVKGRFTISRDNAKNTVYLQMNSLKPEDTAVYYCAVDEAPPELVYWFFTYYYGGQGTQVTVSS” the entry was “low polyreactivity”; with “QVQLVESGGGLVQAGGSLRLSCAASGYTFYVYAMGWYRQAPGKERELVAAIRSGGTTYYADSVKGRFTISRDNAKNTVYLQMNSLKPEDTAVYYCAAVSSDYPFEGNYWGQGTQVTVSS”, “low polyreactivity”.
With “QVQLVESGGGLVQAGGSLRLSCAASGYTFYVYTMGWYRQAPGKERELVAAISGSGTSTYYADSVKGRFTISRDNAKNTVYFQMNSLKPVDTAVYYCAAEDYSRDVYSYDYWGQGTQVTVSS” the entry was “low polyreactivity”.
On to “QVQLVESGGGLVQAGGSLRLSCAASGYTFYYAMGWYRQAPGKERELVAAISAGGGRTYYADSVKGRFTISRDNAKNTVYLQMNSLKPEDTAVYYCAGDYFYSQVAYVYWGQGTQLTVSS”, for which the “polyreactivity (PSR sort gate)” value is given as “high polyreactivity”.
Under “QVQLVESGGGLVQAGGSLRLSCAASGYTIRYYAMGWYRQAPGKERDLVAAISSSGGNTYYADSVKGRFTISSDNAKNTVYLQMNSLKPEDTAVYYCAAAYHPYHRVTGHDGGYDYWGQGTQVTVSS” stands “low polyreactivity”.
Under “QVQLVESGGGLVQAGGSLRLSCAASGYTLDGYAMGWYRQAPGKERDFVAAITFRGGGTYYADSVKGRFTISRDNSKNTVYLQMISLKPEDSAVYYCNADTYDPFPWGSDYWGQGTQVNVSS” stands “high polyreactivity”; under “QVQLVESGGGLVQAGGSLRLSCAASGYTLGVNAMGWYRQAPGKERELVAAINYIDTRTYYADSVKGRFTISRDNAKNTVYLQMNSLKPEDTAVYYCAALPYVPWVKRYYYWGQGTQVTVSS”, “low polyreactivity”; under “QVQLVESGGGLVQAGGSLRLSCAASGYTLRPNGMGWYRQAPGKERELVAAISSGGSTYYADSVKGRFTISRDNAKNTVYLQMNSLKPEDTAVYYCAAEYWYDYWGQGTQVTVSS”, “low polyreactivity”.
In the case of “QVQLVESGGGLVQAGGSLRLSCAASGYTSYVYAMGWYRQAPGKERELVAAISLRTASTYYADSVKGRFTISRDNAKNTVYLQMNSLKPEDTAVYYCARGRETYRYCYRLNYWGQGTQVTVSS”, the “polyreactivity (PSR sort gate)” value is “high polyreactivity”.
Under “QVQLVESGGGLVQAGGSLRLSCAASGYTVGTYDMGWYRQAPGKERELVAAISIGGSTNYADSVKGRFTMSRDNAKNTVYLQMNSLKPDATAVSYCASEVNVGTLLLSVIVEDGDYWGQGTQVTVSS” stands “low polyreactivity”; under “QVQLVESGGGLVQAGGSLRLSCAASGYTYGNYAMGWYRQAPGKERELVAAITSRGGRTYYADSVKGRFTISRDNAKNTVYLQMNSLKPEDTAVYYCAARGRYKDGYRMDYWGQGTQVTVSS”, “high polyreactivity”; under “QVQLVESGGGLVQAGGSLRLSCAASGYTYRYYAMGWYRQAPGKERELVAAISASGGITYYADSVKGRFTISRDNAKNTVDLQMNCLNPEDTAVYYCATTGWGSWFDPYDYWGQGTQVTVSS”, “high polyreactivity”.
